Data taken from publication PMC9177663, “Substrate-dependent modulation of the leukotriene A4 hydrolase aminopeptidase activity and effect in a murine model of acute lung inflammation” (Scientific Reports, 2022).

T1: leukotriene A4 hydrolase (LTA4H) (Homo sapiens, UniProt P09960)
T1 construct: N-terminal (His)6- and Xpress-tag
T1 sequence (P09960 2-611): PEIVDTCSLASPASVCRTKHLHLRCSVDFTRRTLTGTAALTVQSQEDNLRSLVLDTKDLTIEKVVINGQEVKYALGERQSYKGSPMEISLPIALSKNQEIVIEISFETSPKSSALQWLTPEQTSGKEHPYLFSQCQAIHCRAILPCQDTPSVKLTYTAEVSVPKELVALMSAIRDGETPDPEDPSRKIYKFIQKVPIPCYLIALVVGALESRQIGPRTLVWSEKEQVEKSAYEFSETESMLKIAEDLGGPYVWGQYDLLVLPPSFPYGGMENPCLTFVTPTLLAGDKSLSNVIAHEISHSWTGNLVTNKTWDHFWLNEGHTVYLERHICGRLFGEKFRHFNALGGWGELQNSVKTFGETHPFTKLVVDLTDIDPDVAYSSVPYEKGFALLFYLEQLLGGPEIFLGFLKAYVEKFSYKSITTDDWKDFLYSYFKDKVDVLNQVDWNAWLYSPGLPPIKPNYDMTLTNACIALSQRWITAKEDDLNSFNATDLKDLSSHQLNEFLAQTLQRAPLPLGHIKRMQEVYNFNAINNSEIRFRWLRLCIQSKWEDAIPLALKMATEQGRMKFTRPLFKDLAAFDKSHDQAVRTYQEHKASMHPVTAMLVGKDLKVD

B1: leukotriene A4 hydrolase (LTA4H) (Homo sapiens) (protein)
chain: PEIVDTCSLASPASVCRTKHLHLRCSVDFTRRTLTGTAALTVQSQEDNLRSLVLDTKDLTIEKVVINGQEVKYALGERQSYKGSPMEISLPIALSKNQEIVIEISFETSPKSSALQWLTPEQTSGKEHPYLFSQCQAIHCRAILPCQDTPSVKLTYTAEVSVPKELVALMSAIRDGETPDPEDPSRKIYKFIQKVPIPCYLIALVVGALESRQIGPRTLVWSEKEQVEKSAYEFSETESMLKIAEDLGGPYVWGQYDLLVLPPSFPYGGMENPCLTFVTPTLLAGDKSLSNVIAHEISHSWTGNLVTNKTWDHFWLNEGHTVYLERHICGRLFGEKFRHFNALGGWGELQNSVKTFGETHPFTKLVVDLTDIDPDVAYSSVPYEKGFALLFYLEQLLGGPEIFLGFLKAYVEKFSYKSITTDDWKDFLYSYFKDKVDVLNQVDWNAWLYSPGLPPIKPNYDMTLTNACIALSQRWITAKEDDLNSFNATDLKDLSSHQLNEFLAQTLQRAPLPLGHIKRMQEVYNFNAINNSEIRFRWLRLCIQSKWEDAIPLALKMATEQGRMKFTRPLFKDLAAFDKSHDQAVRTYQEHKASMHPVTAMLVGKDLKVD
notes: N-terminal (His)6- and Xpress-tag

Columns and labels:
[1] = biological target: T1, leukotriene A4 hydrolase (LTA4H); assay: X-ray co-crystal structure of ternary LTA4H:4MDM:OPB-Pro complex, […] Å; type: binding
purified protein = substrate: N=C(N)NCCC[C@H](N)C(=O)Nc1ccc([N+](=O)[O-])cc1; assay: purified protein; conditions: Zn2+ LTA4H AP substrate site; cannot bind simultaneously with 4MDM
[2] = substrate: O=C(Nc1ccc([N+](=O)[O-])cc1)[C@@H]1CCCN1; assay: Michaelis-Menten hydrolysis kinetics of purified LTA4H at A405 (KM); type: biochemical, Homo sapiens; conditions: Zn2+ LTA4H AP substrate site
[3] = substrate: C[C@H](N)C(=O)Nc1ccc([N+](=O)[O-])cc1; assay: as above; type: biochemical, Homo sapiens; conditions: Zn2+ LTA4H AP substrate site

Molecule	X-ray co-crystal structure of ternary LTA4H:4MDM:OPB-Pro complex, 2.8 Å [1]	Km (purified protein) [mM]	kcat (purified protein) [s⁻¹]	kcat/Km (purified protein) [M⁻¹ s⁻¹]	Km [2] [mM]	kcat [2] [s⁻¹]	kcat/Km [2] [M⁻¹ s⁻¹]	Km [3] [mM]	kcat [3] [s⁻¹]	kcat/Km [3] [M⁻¹ s⁻¹]
O=C(O)[C@@H]1CCCN1C(=O)CCC(=O)N1CCCC1 [OPB-Pro, N-(4-oxo-4-pyrrolidinyl-butanoyl)-proline]	The OPB-Pro was bound in the AP active site with its prolyl carbonyl group interacting with the zinc atom.									
B1		18.79 ± 2.73	24.4	1300	0.84 ± 0.05	0.19 ± 0.01	230	1.60 ± 0.12	1.74 ± 0.07	1080
